In US20200087364A1 (IMMATICS BIOTECHNOLOGIES, published 2020):

Molecular target: T1, HLA-A*01:01 (human)
T1 construct: MHC class I monomer first loaded with a UV-sensitive peptide (not identified) that is cleaved by UV irradiation and exchanged for the tested peptide; captured on streptavidin plates, detected with anti-β2m; also called peptide-receptive MHC molecules
Test: UV-ligand exchange, anti-b2m ELISA
Description: Candidate peptides for T cell based therapies according to the present invention were further tested for their MHC binding capacity (affinity). The individual peptide-MHC complexes were produced by UV-ligand exchange, where a UV-sensitive peptide is cleaved upon UV-irradiation and exchanged with the peptide of interest as analyzed. Only peptide candidates that can effectively bind and stabilize the peptide-receptive MHC molecules prevent dissociation of the MHC complexes. To determine the yield of the exchange reaction, an ELISA was performed based on the detection of the light chain (β2m) of stabilized MHC complexes. The assay was performed as generally described in Rodenko et al. (Rodenko et al., 2006)
96 well MAXISorp plates (NUNC) were coated over night with 2 ug/ml streptavidin in PBS at room temperature, washed 4× and blocked for 1 h at 37° C. in 2% BSA containing blocking buffer. Refolded HLA-A*02:01/MLA-001 monomers served as standards, covering the range of 15-500 ng/ml. Peptide-MHC monomers of the UV-exchange reaction were diluted 100-fold in blocking buffer. Samples were incubated for 1 h at 37° C., washed four times, incubated with 2 ug/ml HRP conjugated anti-β2m for 1 h at 37° C., washed again and detected with TMB solution that is stopped with […]. Absorption was measured at 450 nm.

Binder	peptide exchange yield
PIMSSSQALY	20 to 50%
GTKQWVHARY	10 to 20%
TFDKQIVLL	20 to 50%
NEIDIHSIYFY	20 to 50%
VVFDKSDLAKY	20 to 50%
NTHTGTRPY	20 to 50%
ITDTLIHLM	50 to 75%
LLKAKDILY	20 to 50%
AQVQDTGRY	50 to 75%
EVVEGKEWGSFY	50 to 75%
IGDKVDAVY	20 to 50%
LCATVCGTEQY	20 to 50%
RTIEGDFLW	20 to 50%
FQYELRELY	> 75%
LEDGIEQSAY	20 to 50%
AVAAAAGASLY	20 to 50%
HVSGQMLYF	20 to 50%
VPFNLITEY	10 to 20%
QSEKEPGQQY	50 to 75%
IPVHDSVGVTY	50 to 75%
YTEFVDATFTK	> 75%
RSDIGEFEW	20 to 50%
NSNLKFLEV	20 to 50%
KASSVSAEDGY	20 to 50%
SPAKQFNIY	50 to 75%
SQHIFTVSY	20 to 50%
FLKVTGYDKDDY	20 to 50%

Binder	peptide exchange yield
IEKFAVLY	50 to 75%
LTWAHSAKY	50 to 75%
TVFDENLSRY	20 to 50%
ITDVGPGNY	50 to 75%
STIDFRAGF	20 to 50%
FTTLSDLQTNMA	20 to 50%
RRLNFSGFGY	50 to 75%
SAPSSSGSPLY	20 to 50%
ISEAPLTEV	20 to 50%
ITDTLIHL	20 to 50%
EAYLERIGY	50 to 75%
SADEAHGLL	20 to 50%
ASDHWRGRY	50 to 75%
DAVAPGREY	20 to 50%
TPIPFDKILY	20 to 50%
RTHIGYKVY	50 to 75%
TTDPKKFQY	> 75%
LSDAVHVEF	50 to 75%
PVHDSVGVTY	20 to 50%
YIGLKGLYF	20 to 50%
TTENSGNYY	> 75%
YTDFVGEGLY	50 to 75%
ISEDKSISF	20 to 50%
VSERTGISY	50 to 75%
TLDSTRTLY	> 75%
YEVDTKLLSL	20 to 50%
ASCRSSAEY	> 75%
